Experimental data taken from US20250051409A1, “MODULATORS OF PHOSPHATIDYLSERlNE DECARBOXYLASE AND USE THEREOF” (THE NATIONAL INSTITUTE FOR BIOTECHNOLOGY IN THE NEGEV LTD., priority 2021, published 2025).
Ends that are not written are not given here.

T1: Purified recombinant protein (full length) of human phosphatidylserine decarboxylase (PSD), with N-terminal His tag, expressed in E. coli (Acris-OriGene) (human)
T1 sequence (chain, fluorescently labelled in the MST assay with the peptides): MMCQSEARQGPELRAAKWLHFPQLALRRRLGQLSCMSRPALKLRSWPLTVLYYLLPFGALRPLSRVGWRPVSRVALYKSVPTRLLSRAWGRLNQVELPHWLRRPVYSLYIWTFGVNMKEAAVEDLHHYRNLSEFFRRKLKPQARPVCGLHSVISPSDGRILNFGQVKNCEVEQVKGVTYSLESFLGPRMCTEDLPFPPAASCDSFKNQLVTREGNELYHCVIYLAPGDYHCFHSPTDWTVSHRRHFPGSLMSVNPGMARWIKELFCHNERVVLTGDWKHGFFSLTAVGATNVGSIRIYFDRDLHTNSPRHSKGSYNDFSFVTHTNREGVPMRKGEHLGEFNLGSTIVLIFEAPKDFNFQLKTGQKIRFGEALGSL

B1: peptide 2F3, derived from MAML2 (peptide)
peptide: ALSTSSPIPSVPQSQAQPQTGSGAS
B2: peptide 1C11, derived from HTRA2 (peptide)
peptide: ALLTSGTSDPRARVTYGTPSLWARL
modifications: not fully specified

Experiments:
[1] = target: T1, Purified recombinant protein (full length) of human phosphatidylserine decarboxylase (PSD), with N-terminal His tag, expressed in E. coli (Acris-OriGene) (human); test: microscale thermophoresis; fluorescently labelled PSD (0.25 µM) with peptide (1-10 µM)
[2] = target: T1, Purified recombinant protein (full length) of human phosphatidylserine decarboxylase (PSD), with N-terminal His tag, expressed in E. coli (Acris-OriGene) (human); test: cell-based or functional assay
[3] = target: T1, Purified recombinant protein (full length) of human phosphatidylserine decarboxylase (PSD), with N-terminal His tag, expressed in E. coli (Acris-OriGene) (human); test: MST, fluorescently labelled purified PSD 0.25 µM, peptide titrated 1-10 µM

| Binder | Kd [1] | inhibition of PSD activity (DSB-3 method) [2] | EC50 (read off the curve) [3] |
| --- | --- | --- | --- |
| B1 | 3000 nM | 1 µM | 3000 nM |
| B2 | 3000 nM | 1 µM | 4000 nM |
